From the supplement of paper PMC5998384

How the values were obtained:
HeLa Kyoto [1] = assay: solubility change mitosis vs G1/S (difference of NP-40 vs SDS log2 ratios) (log2 ratio difference); higher = more soluble in mitosis
HeLa Kyoto [2] = assay: melting temperature (median over replicates), in situ; higher = more thermally stable
HeLa Kyoto [3] = assay: solubility in G1/S (NP-40 vs SDS abundance) (log2 ratio); higher = more soluble; conditions: cell cycle stage: G1/S
HeLa Kyoto [4] = assay: thermal stability score vs G1/S (z-score of summed log2 fold changes over temperatures); higher = more thermally stable than in G1/S
[5] = cell cycle stage: early G1 (4.5 h after nocodazole release)
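Wherever melting temperature (median over replicates), in situ is given: HeLa Kyoto cells synchronized by double thymidine or nocodazole block, proteins quantified by TMT10plex mass spectrometry, three independent biological replicates.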
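Wherever solubility change mitosis vs G1/S (difference of NP-40 vs SDS log2 ratios) is given: synchronized HeLa Kyoto cells (double thymidine block for G1/S, nocodazole release for mitosis), protein amounts in NP-40 versus SDS lysates quantified by mass spectrometry, three biological replicates.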
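Wherever solubility in G1/S (NP-40 vs SDS abundance) is given: HeLa Kyoto cells arrested at G1/S by double thymidine block, proteins quantified by TMT10plex mass spectrometry in mild NP-40 versus SDS extracts, three biological replicates.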
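Wherever thermal stability score vs G1/S (z-score of summed log2 fold changes over temperatures) is given: synchronized HeLa Kyoto cells, proteins quantified by TMT10plex mass spectrometry, three biological replicates, mitosis taken 0.5 h after nocodazole release, G1/S directly after double thymidine block.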

Sequence | solubility change mitosis (log2) (HeLa Kyoto [1]) | melting temperature (HeLa Kyoto [2]; cell cycle stage: mitosis) | solubility in G1/S (log2) (HeLa Kyoto [3]) | thermal stability score (HeLa Kyoto [4]; [5]) | thermal stability score (HeLa Kyoto [4]; cell cycle stage: mitosis) | melting temperature (HeLa Kyoto [2]; cell cycle stage: G1/S)
MEEMSGESVVSSAVPAAATRTTSFKGTSPSSKYVKLNVGGALYYTTMQTLTKQDTMLKAMFSGRMEVLTDSEGWILIDRCGKHFGTILNYLRDGAVPLPESRREIEELLAEAKYYLVQGLVEECQAALQNKDTYEPFCKVPVITSSKEEQKLIATSNKPAVKLLYNRSNNKYSYTSNSDDNMLKNIELFDKLSLRFNGRVLFIKDVIGDEICCWSFYGQGRKIAEVCCTSIVYATEKKQTKVEFPEARIYEETLNILLYEAQDGRGPDNALLEATGGAAGRSHHLDEDEERERIERVRRIHIKRPDDRAHLHQ [KCTD10] | 0.647 | 51.6 °C | -1.29 | 0.937 | 1.24 | 
MEESPLSRAPSRGGVNFLNVARTYIPNTKVECHYTLPPGTMPSASDWIGIFKVEAACVRDYHTFVWSSVPESTTDGSPIHTSVQFQASYLPKPGAQLYQFRYVNRQGQVCGQSPPFQFREPRPMDELVTLEEADGGSDILLVVPKATVLQNQLDESQQERNDLMQLKLQLEGQVTELRSRVQELERALATARQEHTELMEQYKGISRSHGEITEERDILSRQQGDHVARILELEDDIQTISEKVLTKEVELDRLRDTVKALTREQEKLLGQLKEVQADKEQSEAELQVAQQENHHLNLDLKEAKSWQEEQSAQAQRLKDKVAQMKDTLGQAQQRVAELEPLKEQLRGAQELAASSQQKATLLGEELASAAAARDRTIAELHRSRLEVAEVNGRLAELGLHLKEEKCQWSKERAGLLQSVEAEKDKILKLSAEILRLEKAVQEERTQNQVFKTELAREKDSSLVQLSESKRELTELRSALRVLQKEKEQLQEEKQELLEYMRKLEARLEKVADEKWNEDATTEDEEAAVGLSCPAALTDSEDESPEDMRLPPYGLCERGDPGSSPAGPREASPLVVISQPAPISPHLSGPAEDSSSDSEAEDEKSVLMAAVQSGGEEANLLLPELGSAFYDMASGFTVGTLSETSTGGPATPTWKECPICKERFPAESDKDALEDHMDGHFFFSTQDPFTFE [CALCOCO1] | -0.128 | 50.3 °C | 0.13 | 0.0224 | 0.762 | 50.2 °C
MEETIKDPPTSAVLLDHCHFSQVIFNSVEKFYIPGGDVTCHYTFTQHFIPRRKDWIGIFRVGWKTTREYYTFMWVTLPIDLNNKSAKQQEVQFKAYYLPKDDEYYQFCYVDEDGVVRGASIPFQFRPENEEDILVVTTQGEVEEIEQHNKELCKENQELKDSCISLQKQNSDMQAELQKKQEELETLQSINKKLELKVKEQKDYWETELLQLKEQNQKMSSENEKMGIRVDQLQAQLSTQEKEMEKLVQGDQDKTEQLEQLKKENDHLFLSLTEQRKDQKKLEQTVEQMKQNETTAMKKQQELMDENFDLSKRLSENEIICNALQRQKERLEGENDLLKRENSRLLSYMGLDFNSLPYQVPTSDEGGARQNPGLAYGNPYSGIQESSSPSPLSIKKCPICKADDICDHTLEQQQMQPLCFNCPICDKIFPATEKQIFEDHVFCHSL [CALCOCO2] | -0.0722 | 51 °C | 0.203 | -0.458 | -0.851 | 50.5 °C
MEEVPHDCPGADSAQAGRGASCQGCPNQRLCASGAGATPDTAIEEIKEKMKTVKHKILVLSGKGGVGKSTFSAHLAHGLAEDENTQIALLDIDICGPSIPKIMGLEGEQVHQSGSGWSPVYVEDNLGVMSVGFLLSSPDDAVIWRGPKKNGMIKQFLRDVDWGEVDYLIVDTPPGTSDEHLSVVRYLATAHIDGAVIITTPQEVSLQDVRKEINFCRKVKLPIIGVVENMSGFICPKCKKESQIFPPTTGGAELMCQDLEVPLLGRVPLDPLIGKNCDKGQSFFIDAPDSPATLAYRSIIQRIQEFCNLHQSKEENLISS [NUBP1] | 0.00361 | 52.7 °C | 0.398 | 3.38 | 2.05 | 52.4 °C
MEFAELIKTPRVDNVVLHRPFYPAVEGTLCLTGHHLILSSRQDNTEELWLLHSNIDAIDKRFVGSLGTIIIKCKDFRIIQLDIPGMEECLNIASSIEALSTLDSITLMYPFFYRPMFEVIEDGWHSFLPEQEFELYSSATSEWRLSYVNKEFAVCPSYPPIVTVPKSIDDEALRKVATFRHGGRFPVLSYYHKKNGMVIMRSGQPLTGTNGRRCKEDEKLINATLRAGKRGYIIDTRSLNVAQQTRAKGGGFEQEAHYPQWRRIHKSIERYHILQESLIKLVEACNDQTHNMDRWLSKLEASNWLTHIKEILTTACLAAQCIDREGASILIHGTEGTDSTLQVTSLAQIILEPRSRTIRGFEALIEREWLQAGHPFQQRCAQSAYCNTKQKWEAPVFLLFLDCVWQILRQFPCSFEFNENFLIMLFEHAYASQFGTFLGNNESERCKLKLQQKTMSLWSWVNQPSELSKFTNPLFEANNLVIWPSVAPQSLPLWEGIFLRWNRSSKYLDEAYEEMVNIIEYNKELQAKVNILRRQLAELETEDGMQESP [MTMR9] | -0.125 | 50.6 °C | -0.116 | -0.213 | -0.626 | 50.2 °C
MEFDLGAALEPTSQKPGVGAGHGGDPKLSPHKVQGRSEAGAGPGPKQGHHSSSDSSSSSSDSDTDVKSHAAGSKQHESIPGKAKKPKVKKKEKGKKEKGKKKEAPH [IMUP] | 0.311 |  | 1.09 | 1.02 | -1.94 | 59.3 °C
MEFSSPSREECPKPLSRVSIMAGSLTGLLLLQAVSWASGARPCIPKSFGYSSVVCVCNATYCDSFDPPTFPALGTFSRYESTRSGRRMELSMGPIQANHTGTGLLLTLQPEQKFQKVKGFGGAMTDAAALNILALSPPAQNLLLKSYFSEEGIGYNIIRVPMASCDFSIRTYTYADTPDDFQLHNFSLPEEDTKLKIPLIHRALQLAQRPVSLLASPWTSPTWLKTNGAVNGKGSLKGQPGDIYHQTWARYFVKFLDAYAEHKLQFWAVTAENEPSAGLLSGYPFQCLGFTPEHQRDFIARDLGPTLANSTHHNVRLLMLDDQRLLLPHWAKVVLTDPEAAKYVHGIAVHWYLDFLAPAKATLGETHRLFPNTMLFASEACVGSKFWEQSVRLGSWDRGMQYSHSIITNLLYHVVGWTDWNLALNPEGGPNWVRNFVDSPIIVDITKDTFYKQPMFYHLGHFSKFIPEGSQRVGLVASQKNDLDAVALMHPDGSAVVVVLNRSSKDVPLTIKDPAVGFLETISPGYSIHTYLWRRQ [GBA] | -0.136 | 55.7 °C | 0.227 | -0.371 | 0.189 | 55.4 °C
MEGAKPTLQLVYQAVQALYHDPDPSGKERASFWLGELQRSVHAWEISDQLLQIRQDVESCYFAAQTMKMKIQTSFYELPTDSHASLRDSLLTHIQNLKDLSPVIVTQLALAIADLALQMPSWKGCVQTLVEKYSNDVTSLPFLLEILTVLPEEVHSRSLRIGANRRTEIIEDLAFYSSTVVSLLMTCVEKAGTDEKMLMKVFRCLGSWFNLGVLDSNFMANNKLLALLFEVLQQDKTSSNLHEAASDCVCSALYAIENVETNLPLAMQLFQGVLTLETAYHMAVAREDLDKVLNYCRIFTELCETFLEKIVCTPGQGLGDLRTLELLLICAGHPQYEVVEISFNFWYRLGEHLYKTNDEVIHGIFKAYIQRLLHALARHCQLEPDHEGVPEETDDFGEFRMRVSDLVKDLIFLIGSMECFAQLYSTLKEGNPPWEVTEAVLFIMAAIAKSVDPENNPTLVEVLEGVVRLPETVHTAVRYTSIELVGEMSEVVDRNPQFLDPVLGYLMKGLCEKPLASAAAKAIHNICSVCRDHMAQHFNGLLEIARSLDSFLLSPEAAVGLLKGTALVLARLPLDKITECLSELCSVQVMALKKLLSQEPSNGISSDPTVFLDRLAVIFRHTNPIVENGQTHPCQKVIQEIWPVLSETLNKHRADNRIVERCCRCLRFAVRCVGKGSAALLQPLVTQMVNVYHVHQHSCFLYLGSILVDEYGMEEGCRQGLLDMLQALCIPTFQLLEQQNGLQNHPDTVDDLFRLATRFIQRSPVTLLRSQVVIPILQWAIASTTLDHRDANCSVMRFLRDLIHTGVANDHEEDFELRKELIGQVMNQLGQQLVSQLLHTCCFCLPPYTLPDVAEVLWEIMQVDRPTFCRWLENSLKGLPKETTVGAVTVTHKQLTDFHKQVTSAEECKQVCWALRDFTRLFR [TNPO3] | -0.0891 | 51.7 °C | -0.253 | 0.188 | 1.24 | 51.6 °C
MEGESTSAVLSGFVLGALAFQHLNTDSDTEGFLLGEVKGEAKNSITDSQMDDVEVVYTIDIQKYIPCYQLFSFYNSSGEVNEQALKKILSNVKKNVVGWYKFRRHSDQIMTFRERLLHKNLQEHFSNQDLVFLLLTPSIITESCSTHRLEHSLYKPQKGLFHRVPLVVANLGMSEQLGYKTVSGSCMSTGFSRAVQTHSSKFFEEDGSLKEVHKINEMYASLQEELKSICKKVEDSEQAVDKLVKDVNRLKREIEKRRGAQIQAAREKNIQKDPQENIFLCQALRTFFPNSEFLHSCVMSLKNRHVSKSSCNYNHHLDVVDNLTLMVEHTDIPEASPASTPQIIKHKALDLDDRWQFKRSRLLDTQDKRSKADTGSSNQDKASKMSSPETDEEIEKMKGFGEYSRSPTF [FAM175A] | -0.057 | 57.3 °C | 0.0226 | -2.44 | -2.5 | 
MEGKWLLCMLLVLGTAIVEAHDGHDDDVIDIEDDLDDVIEEVEDSKPDTTAPPSSPKVTYKAPVPTGEVYFADSFDRGTLSGWILSKAKKDDTDDEIAKYDGKWEVEEMKESKLPGDKGLVLMSRAKHHAISAKLNKPFLFDTKPLIVQYEVNFQNGIECGGAYVKLLSKTPELNLDQFHDKTPYTIMFGPDKCGEDYKLHFIFRHKNPKTGIYEEKHAKRPDADLKTYFTDKKTHLYTLILNPDNSFEILVDQSVVNSGNLLNDMTPPVNPSREIEDPEDRKPEDWDERPKIPDPEAVKPDDWDEDAPAKIPDEEATKPEGWLDDEPEYVPDPDAEKPEDWDEDMDGEWEAPQIANPRCESAPGCGVWQRPVIDNPNYKGKWKPPMIDNPSYQGIWKPRKIPNPDFFEDLEPFRMTPFSAIGLELWSMTSDIFFDNFIICADRRIVDDWANDGWGLKKAADGAAEPGVVGQMIEAAEERPWLWVVYILTVALPVFLVILFCCSGKKQTSGMEYKKTDAPQPDVKEEEEEKEEEKDKGDEEEEGEEKLEEKQKSDAEEDGGTVSQEEEDRKPKAEEDEILNRSPRNRKPRRE [CANX] | -0.0953 | 53.9 °C | 0.339 | 2.71 | 3.35 | 53.7 °C
MEGLAGYVYKAASEGKVLTLAALLLNRSESDIRYLLGYVSQQGGQRSTPLIIAARNGHAKVVRLLLEHYRVQTQQTGTVRFDGYVIDGATALWCAAGAGHFEVVKLLVSHGANVNHTTVTNSTPLRAACFDGRLDIVKYLVENNANISIANKYDNTCLMIAAYKGHTDVVRYLLEQRADPNAKAHCGATALHFAAEAGHIDIVKELIKWRAAIVVNGHGMTPLKVAAESCKADVVELLLSHADCDRRSRIEALELLGASFANDRENYDIIKTYHYLYLAMLERFQDGDNILEKEVLPPIHAYGNRTECRNPQELESIRQDRDALHMEGLIVRERILGADNIDVSHPIIYRGAVYADNMEFEQCIKLWLHALHLRQKGNRNTHKDLLRFAQVFSQMIHLNETVKAPDIECVLRCSVLEIEQSMNRVKNISDADVHNAMDNYECNLYTFLYLVCISTKTQCSEEDQCKINKQIYNLIHLDPRTREGFTLLHLAVNSNTPVDDFHTNDVCSFPNALVTKLLLDCGAEVNAVDNEGNSALHIIVQYNRPISDFLTLHSIIISLVEAGAHTDMTNKQNKTPLDKSTTGVSEILLKTQMKMSLKCLAARAVRANDINYQDQIPRTLEEFVGFH [FEM1B] | -0.0104 | 52.2 °C | -0.0515 | 0.363 | -1.04 | 53.5 °C
